The source of these data is patent publication US20140221282A1 (AstraZeneca / MedImmune, published 2014).

Ends that are not written are not given here. Y‑shaped‑mPEG40KD = Y-shaped methoxy-PEG of 40 kDa attached to the Lys side chain; mPEG40KD = methoxy-PEG of 40 kDa

Assay [1] has as its target T1, human amylin receptor 3 (human, UniProt P30988 25-474; O60896 24-148).
T1 sequence (looked up) 1: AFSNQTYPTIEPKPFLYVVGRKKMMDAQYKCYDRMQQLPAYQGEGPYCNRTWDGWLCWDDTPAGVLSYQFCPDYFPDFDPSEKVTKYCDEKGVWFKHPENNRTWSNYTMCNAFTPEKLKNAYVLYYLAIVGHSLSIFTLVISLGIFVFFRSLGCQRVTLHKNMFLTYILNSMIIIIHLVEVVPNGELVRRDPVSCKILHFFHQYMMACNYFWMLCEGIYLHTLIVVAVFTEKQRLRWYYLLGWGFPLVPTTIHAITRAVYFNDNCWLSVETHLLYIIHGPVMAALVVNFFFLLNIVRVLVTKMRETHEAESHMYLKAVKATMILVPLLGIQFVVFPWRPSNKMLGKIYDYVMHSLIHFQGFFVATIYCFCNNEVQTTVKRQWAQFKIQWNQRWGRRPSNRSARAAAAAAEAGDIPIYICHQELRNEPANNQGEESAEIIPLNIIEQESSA
T1 sequence (looked up) 2: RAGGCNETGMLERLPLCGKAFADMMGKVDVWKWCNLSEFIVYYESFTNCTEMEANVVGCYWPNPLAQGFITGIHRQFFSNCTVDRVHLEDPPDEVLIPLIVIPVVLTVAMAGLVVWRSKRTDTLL
The experiment in a line: cell-based or functional assay.

Assay [2] deals with T2, amylin receptor of rat nucleus accumbens membranes (rat).
T2 chain 1: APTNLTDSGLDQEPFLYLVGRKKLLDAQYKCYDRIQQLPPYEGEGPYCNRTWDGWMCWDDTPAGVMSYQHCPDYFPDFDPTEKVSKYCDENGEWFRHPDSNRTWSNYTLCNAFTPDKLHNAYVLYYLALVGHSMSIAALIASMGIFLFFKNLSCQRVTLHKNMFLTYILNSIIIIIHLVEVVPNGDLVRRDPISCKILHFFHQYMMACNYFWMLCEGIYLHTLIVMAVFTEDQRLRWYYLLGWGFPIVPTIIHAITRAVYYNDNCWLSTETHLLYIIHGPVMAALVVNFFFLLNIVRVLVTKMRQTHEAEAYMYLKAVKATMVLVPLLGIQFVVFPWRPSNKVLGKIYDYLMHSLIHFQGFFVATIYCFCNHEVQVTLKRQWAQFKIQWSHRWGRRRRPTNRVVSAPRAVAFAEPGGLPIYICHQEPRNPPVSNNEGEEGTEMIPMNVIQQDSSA
T2 chain 2: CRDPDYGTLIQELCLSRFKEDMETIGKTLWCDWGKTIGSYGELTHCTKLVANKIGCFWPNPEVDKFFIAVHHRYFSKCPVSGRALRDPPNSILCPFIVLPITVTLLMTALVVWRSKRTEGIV
The assay is described as follows: competition with 125I-rat amylin, rat nucleus accumbens membranes.

In assay [3] the target is T3, amylin receptor of rat nucleus accumbens membranes (rat).
T3 construct: whole, on cells; native tissue membranes; also called RNA membranes
The assay is described as above.

For assay [4], the target named is T1, human amylin receptor 3. The experiment in a line: competition with 125I-rat amylin, human AMY3 receptor.

In the case of CNTATCATQRLANFLVHSSNK(mPEG 40 kDa)FGPILPPTNVGSNTY-NH2 (ends and bridges not checked, also called Cmpd 85) [[K^22(mPEG40KD)]-Cmpd 58], in assay [1], the “Functional EC50, Human AMY3” value was 1.66 nM. The IC50 in assay [2] came out at 148 nM.

Take KCNTATCATQRLANFLVRSSNNLGPVLPPTK(mPEG40KD)VGSNTY-NH2 (ends and bridges not checked, also called Cmpd 73) [[K^31(mPEG40KD)]-Cmpd 55]: the IC50 in assay [2] was determined as 86 nM.

CNTATCATQRLANFLVRSSK(mPEG 40 kDa)NLGPVLPPTNVGSNTY-NH2 (ends and bridges not checked, also called Cmpd 70) [[K^21(mPEG40KD)]-Cmpd 52] gave an IC50 in assay [2] of 112 nM.

CNTATCATQRLANFLVRSSNNLGPK(mPEG40KD)LPPTNVGSNTY-NH2 (ends and bridges not checked, also called Cmpd 72) [[K^26(mPEG40KD)]-Cmpd 54] showed an IC50 in assay [2] of 54 nM.

Take KCNTATCATQRLANFLVRSSK(mPEG 40 kDa)NLGPVLPPTNVGSNTY-NH2 (ends and bridges not checked, also called Cmpd 69) [[K^21(mPEG40KD)]-Cmpd 51]: the IC50 in assay [2] is 104 nM.

Take KCNTATCATQRLANFLVRSSNNLGPVLPPTNVGSNTY-NH2 (ends and bridges not checked, also called Cmpd 49) [rat amylin, KCNTATCATQRLANFLVRSSNNLGPVLPPTNVGSNTY-NH2]: the IC50 in assay [3] was determined as 0.1 nM. That is a sub-nanomolar value.

On to CNTATCATQRLANFLVHSSNNFGPK(Y‑shaped‑mPEG40KD)LPPTNVGSNTY-NH2 (ends and bridges not checked, also called Cmpd 79) [[K^26(Y-shaped-mPEG40KD)]-Cmpd 60], for which, in assay [1], the “Functional EC50, Human AMY3” value was 1.74 nM. In addition, the IC50 in assay [3] came out at 132 nM; in assay [4], 1130 nM.

As to CNTATCATQRLANFLVHSSNNFGPK(mPEG40KD)LPPTNVGSNTY-NH2 (ends and bridges not checked, also called Cmpd 77) [[K^26(mPEG40KD)]-Cmpd 60], the “Functional EC50, Human AMY3” value in assay [1] worked out at 0.078 nM. For the same molecule, the IC50 in assay [3] was 39 nM; in assay [4], 60 nM.

With CNTATCATQRLANFLVHSK(mPEG 40 kDa)NNFGPILPPTNVGSNTY-NH2 (ends and bridges not checked, also called Cmpd 91) [[K^20(mPEG40KD)]-Cmpd 58], the “Functional EC50, Human AMY3” value in assay [1] was 5.51 nM. The molecule also yielded an IC50 in assay [4] of 918 nM.

Regarding CNTATCATQRLANFLVK(mPEG 40 kDa)SSNNFGPILPPTNVGSNTY-NH2 (ends and bridges not checked, also called Cmpd 90) [[K^18(mPEG40KD)]-Cmpd 58], the “Functional EC50, Human AMY3” value in assay [1] was 0.85 nM. For the same molecule, the IC50 in assay [4] worked out at 238 nM.

Consider CNTATCATQRLANFLVHSSNNFGPILK(mPEG40KD)PTNVGSNTY-NH2 (ends and bridges not checked, also called Cmpd 83) [[K^28(mPEG40KD)]-Cmpd 65], for which the “Functional EC50, Human AMY3” value in assay [1] was determined as 0.2 nM. The IC50 in assay [2] came out at 53 nM; in assay [4], 46 nM.

As to CNTATCATQRLANFLVHSSNNFGPIK(mPEG40KD)PPTNVGSNTY-NH2 (ends and bridges not checked, also called Cmpd 82) [[K^27(mPEG40KD)]-Cmpd 64], in assay [1], the “Functional EC50, Human AMY3” value stood at 0.2 nM. For the same molecule, the IC50 came to 51 nM in assay [2] and 87 nM in assay [4].

Consider CNTATCATQRLANFLVHSSNNFGPILPPTK(mPEG40KD)VGSNTY-NH2 (ends and bridges not checked, also called Cmpd 78) [[K^31(mPEG40KD)]-Cmpd 61], for which the “Functional EC50, Human AMY3” value in assay [1] is 0.1 nM. Moreover, the IC50 in assay [2] is 61 nM; in assay [4] it was 80 nM.

As for CNTATCATQRLANFLVHSSNNFK(mPEG40KD)PILPPTNVGSNTY-NH2 (ends and bridges not checked, also called Cmpd 80) [[K^24(mPEG40KD)]-Cmpd 62], the “Functional EC50, Human AMY3” value in assay [1] stood at 0.41 nM. For the same molecule, the IC50 stood at 79 nM in assay [2] and 111 nM in assay [4].

Consider CNTATCATQRLANFLVHSSNNFGPILPPTNVGK(mPEG40KD)NTY-NH2 (ends and bridges not checked, also called Cmpd 94) [[K^34(mPEG40KD)]-Cmpd 58], for which the “Functional EC50, Human AMY3” value in assay [1] is 0.034 nM. Further, in assay [4], the IC50 was found to be 77 nM.

With CNTATCATQRLANFLK(mPEG 40 kDa)HSSNNFGPILPPTNVGSNTY-NH2 (ends and bridges not checked, also called Cmpd 89) [[K^17(mPEG40KD)]-Cmpd 58], in assay [1], the “Functional EC50, Human AMY3” value was 2.23 nM. Also, the IC50 in assay [4] was 334 nM.

For the molecule CNTATCATQRLANFLVHSSK(mPEG 40 kDa)NFGPILPPTNVGSNTY-NH2 (ends and bridges not checked, also called Cmpd 76) [[K^21(mPEG40KD)]-Cmpd 59], the “Functional EC50, Human AMY3” value in assay [1] was determined as 1.75 nM. Besides, the IC50 came out at 131 nM in assay [2] and 388 nM in assay [4].

In the case of CNTATCATQRLANFLVHSSNNFGK(mPEG40KD)ILPPTNVGSNTY-NH2 (ends and bridges not checked, also called Cmpd 81) [[K^25(mPEG40KD)]-Cmpd 63], in assay [1], the “Functional EC50, Human AMY3” value was found to be 0.086 nM. The IC50 amounted to 31 nM in assay [2] and 48 nM in assay [4].

Regarding CNTATCATQRLANFLVHSSNNFGPILPPTNK(mPEG40KD)GSNTY-NH2 (ends and bridges not checked, also called Cmpd 92) [[K^32(mPEG40KD)]-Cmpd 58], in assay [1], the “Functional EC50, Human AMY3” value was 24.7 nM. Further, the IC50 in assay [4] is 1000 nM.

In the case of CNTATCATQRLANFLVHSSNNFGPILPPTNVGSNK(mPEG40KD)Y-NH2 (ends and bridges not checked, also called Cmpd 96) [[K^36(mPEG40KD)]-Cmpd 58], the “Functional EC50, Human AMY3” value in assay [1] was found to be 3.07 nM. The IC50 in assay [4] stood at 984 nM.

Regarding CNTATCATQRLANFLVHSSNNFGPILPPK(mPEG40KD)NVGSNTY-NH2 (ends and bridges not checked, also called Cmpd 87) [[K^30(mPEG40KD)]-Cmpd 58], in assay [1], the “Functional EC50, Human AMY3” value amounted to 4.25 nM. The IC50 in assay [2] amounted to 599 nM; in assay [4], 685 nM.

For the molecule CNTATCATQRLANFLVHSSNNK(mPEG 40 kDa)GPILPPTNVGSNTY-NH2 (ends and bridges not checked, also called Cmpd 86) [[K^23(mPEG40KD)]-Cmpd 58], in assay [1], the “Functional EC50, Human AMY3” value stood at 2.82 nM. Also, the IC50 in assay [2] came out at 611 nM; in assay [4], 240 nM.

For the molecule CNTATCATQRLANFLVHSSNNFGPILPPTNVK(mPEG40KD)SNTY-NH2 (ends and bridges not checked, also called Cmpd 93) [[K^33(mPEG40KD)]-Cmpd 58], the “Functional EC50, Human AMY3” value in assay [1] stood at 1.69 nM. For the same molecule, the IC50 in assay [4] stood at 860 nM.

Consider CNTATCATQRLANFLVHSSNNFGPILPPTNVGSK(mPEG40KD)TY-NH2 (ends and bridges not checked, also called Cmpd 95) [[K^35(mPEG40KD)]-Cmpd 58], for which, in assay [1], the “Functional EC50, Human AMY3” value was 0.122 nM. In assay [4], the IC50 worked out at 143 nM.

As to CNTATCATQRLANFLVHSSNNFGPILPK(mPEG40KD)TNVGSNTY-NH2 (ends and bridges not checked, also called Cmpd 84) [[K^29(mPEG40KD)]-Cmpd 66], the “Functional EC50, Human AMY3” value in assay [1] came out at 0.11 nM. Moreover, the IC50 in assay [2] was found to be 27 nM; in assay [4], 47 nM.

Turning to CNTATCATQRLANFLVRSSNNLGPVLPPTK(mPEG40KD)VGSNTY-NH2 (ends and bridges not checked, also called Cmpd 74) [[K^31(mPEG40KD)]-Cmpd 56], in assay [2], the IC50 came to 75 nM.

Turning to CNTATCATQRLANFLVHSSNNFGPK(mPEG40KD)LPPTNVGSNTY-NH2 (ends and bridges not checked, also called Cmpd 88) [[K^26(mPEG40KD)]-Cmpd 58], the “Functional EC50, Human AMY3” value in assay [1] amounted to 0.082 nM. Further, the IC50 in assay [4] turned out to be 74 nM.
